Reference: patent US20240272170A1 (QUANTUM SI, published 2024)
No end group written: not given here. *: point of attachment. FITC = O=C1OC2(c3ccc(O)cc3Oc3cc(O)ccc32)c2ccc(NC(=S)*)cc21

T1: RA peptide (XAKLDEESILKQK-FITC, X = R)
T1 construct: also called peptide with N-terminal arginine
T1 peptide: RAKLDEESILKQK(FITC)

T2: HA peptide (XAKLDEESILKQK-FITC, X = H)
T2 construct: also called peptide with N-terminal histidine
T2 peptide: HAKLDEESILKQK(FITC)

T3: RS peptide (Octet assay of PS621 variants)
T3 construct: RXKLDEESILKQK with X = S
T3 peptide: RSKLDEESILKQK

T4: RL peptide (Octet assay of PS621 variants)
T4 construct: RXKLDEESILKQK with X = L
T4 peptide: RLKLDEESILKQK

T5: RE peptide (Octet assay of PS621 variants)
T5 construct: RXKLDEESILKQK with X = E
T5 peptide: REKLDEESILKQK

T6: KA peptide (Octet assay of PS621 variants)
T6 construct: XAKLDEESILKQK with X = K
T6 peptide: KAKLDEESILKQK

T7: HA peptide (Octet assay of PS621 variants)
T7 construct: XAKLDEESILKQK with X = H
T7 peptide: HAKLDEESILKQK

T8: AA Peptide (fluorescence polarization), AAKLDEESILKQ{LYS(FITC)}
T8 peptide: AAKLDEESILKQK(FITC)

T9: MA Peptide (fluorescence polarization)
T9 peptide: MAKLDEESILKQK(FITC)


What was measured:
[1] = target: T1, RA peptide (XAKLDEESILKQK-FITC, X = R); assay: fluorescence polarization titration, 20 C
Method: (§1) Binding affinity was measured by polarization using a labeled peptide. The polarization response and total intensity measurements were carried out at 20° C. on a microplate fluorometer with 480 nm excitation and 530 nm emission. […] Multiple analyses were performed at increasing recognizer concentration at a fixed concentration of a target peptide to obtain a titration curve. An equilibrium polarization response at each concentration was plotted and fit to calculate the KD.
(§2) Fluorescence polarization assays were performed with all candidates, and single point binding responses were measured at a fixed concentration of the binders (FIG. 13A). […] We carried out multiple polarization binding titration analysis at increasing concentration of binder protein, and the Kds were determined from the titration curves (FIG. 13B).

[2] = target: T2, HA peptide (XAKLDEESILKQK-FITC, X = H); assay: fluorescence polarization titration, 20 C
Method: as §1, §2

[3] = target: T3, RS peptide (Octet assay of PS621 …); assay: Octet (BLI), 30 C
Description: (§3) Peptides of the sequence RXKLDEESILKQK (SEQ ID NO: 1076) were also used to evaluate the penultimate residue effect.

[4] = target: T10, RQ peptide (Octet assay of PS621 variants); assay: Octet (BLI), 30 C
T10 construct: RX… with X = Q
Description: as §3

[5] = target: T11, RA peptide (Octet assay of PS621 variants); assay: Octet (BLI), 30 C
T11 construct: X… with X = R
Description: as §3

[6] = target: T12, RF peptide (Octet assay of PS621 variants); assay: Octet (BLI), 30 C
T12 construct: RX… with X = F
Description: as §3

[7] = target: T4, RL peptide (Octet assay of PS621 …); assay: Octet (BLI), 30 C
Description: as §3

[8] = target: T5, RE peptide (Octet assay of PS621 …); assay: Octet (BLI), 30 C
Description: as §3

[9] = target: T13, RR peptide (Octet assay of PS621 variants); assay: Octet (BLI), 30 C
T13 construct: RX… with X = R
Description: as §3

[10] = target: T6, KA peptide (Octet assay of PS621 …); assay: Octet (BLI), 30 C
[11] = target: T7, HA peptide (Octet assay of PS621 …); assay: Octet (BLI), 30 C
[12] = target: T8, AA Peptide (fluorescence polarization), …; assay: fluorescence polarization, FITC peptide titrated with protein
[13] = target: VA Peptide (fluorescence polarization) (FITC on the C-terminal lysine); assay: as above
[14] = target: T9, MA Peptide (fluorescence polarization); assay: as above
[15] = target: T14, FA peptide (Octet assay of PS557 variants); assay: Octet (BLI), peptide on sensor, response after 200 s association
T14 construct: Peptide coated on the Octet sensor
Description: (§4) In the high-throughput assay, Octet sensors are coated with the peptide of interest and dipped in buffer containing the purified protein. […] Studying the on and off-rate can also give insight into the mechanism of binding.

[16] = target: T15, LA peptide (Octet assay of PS557 variants); assay: as above
T15 construct: Peptide coated on the Octet sensor
Description: as §4

[17] = target: T16, AA peptide (Octet assay of PS557 variants); assay: as above
T16 construct: Peptide coated on the Octet sensor
Description: as §4

[18] = target: T17, IA peptide (Octet assay of PS557 variants); assay: as above
T17 construct: Peptide coated on the Octet sensor
Description: as §4

[19] = target: T18, VA peptide (Octet assay of PS557 variants); assay: as above
T18 construct: Peptide coated on the Octet sensor
Description: as §4

[20] = target: T19, MA peptide (Octet assay of PS557 variants); assay: as above
T19 construct: Peptide coated on the Octet sensor
Description: as §4

Row | Binder | Kd [1] [nM] | Kd [2] [nM] | Octet response [5] | Octet response [7] | Octet response [10] | Octet response [11] | also measured
1 | PS1104 (designed binder, PS621 variant) MHSKFSHAGRICGAKFKVGEPIYRCKECSFDDTCVLCVNCFNPKDHRGHHVYTTICTEFNNGICDCGDKEAWNHTLFCKAEEG | 260 | 2850 | – | – | – | – | –
2 | PS1106 (designed binder, PS621 variant) MHSKFSHAGRICGAKFKVGEPIYRCKECSFDDTCVLCVNCFNPKDHTGHHVYVTICTEFNNGICDCGDKEAWNHTLFCKAEEG | 165 | 3440 | – | – | – | – | –
3 | PS1114 (designed binder, PS621 variant) MHSKFSHAGRICGAKFKVGEPIYRCKECSFDDTCVLCVNCFNPKDHRGHHVYTTICTERNNGICDCGDKEAWNHTLFCKAEEG | 180 | 2660 | – | – | – | – | –
4 | PS1115 (designed binder, PS621 variant) MHSKFSHAGRICGAKFKVGEPIYRCKECSFDDTCVLCVNCFNPKDHRGHHVYTTICTERNNGICDCGDKEAWNHELFCKAEEG | 152 | 1920 | – | – | – | – | –
5 | PS1121 (designed binder, PS621 variant) MHSKFSHAGRICGAKFKVGEPIYRCKECSFDDTCVLCVNCFNPKDHKGHHVYTTICTEFNNGICDCGDKEAWNHTLFCKAEEG | 259 | 3500 | – | – | – | – | –
6 | PS1101 (designed binder, Variant of PS621) MHSKFSHAGRICGAKFKVREPIYRCKECSFDDTCVLCVNCFNPKDHTGHHVYTTICTEFNNGICDCGDKEAWNHTLFCKAEEG | 1550 | – | 6.5 | 7.7 | 1.4 | – | Octet response [3]: 4.3; Octet response [4]: 4.7; Octet response [6]: 6; Octet response [8]: 1.9; Octet response [9]: 2.8
7 | PS1102 (designed binder, Variant of PS621) MHSKFSHAGRICGAKFKVGEPIYRCKECQFDDTCVLCVNCFNPKDHTGHHVYTTICTEFNNGICDCGDKEAWNHTLFCKAEEG | 638 | – | 8.6 | 10.4 | 6.6 | 2.5 | Octet response [3]: 8.5; Octet response [4]: 9.3; Octet response [6]: 9.3; Octet response [8]: 6.6; Octet response [9]: 7
8 | PS1103 (designed binder, Variant of PS621) MHSKFSHAGRICGAKFKVGEPIYRCKECSFDYTCVLCVNCFNPKDHTGHHVYTTICTEFNNGICDCGDKEAWNHTLFCKAEEG | 787 | – | 6.2 | 8.4 | 2.9 | – | –
9 | PS1104 (designed binder, Variant of PS621) MHSKFSHAGRICGAKFKVGEPIYRCKECSFDDTCVLCVNCFNPKDHRGHHVYTTICTEFNNGICDCGDKEAWNHTLFCKAEEG | – | – | 9.4 | 11.3 | 7.3 | 3.4 | Octet response [3]: 8.9; Octet response [4]: 9.7; Octet response [6]: 10.5; Octet response [8]: 7.6; Octet response [9]: 8
10 | PS1105 (designed binder, Variant of PS621) MHSKFSHAGRICGAKFKVGEPIYRCKECSFDDTCVLCVNCFNPKDHTRHHVYTTICTEFNNGICDCGDKEAWNHTLFCKAEEG | – | – | 6.5 | 7.5 | 2.6 | 0.2 | Octet response [3]: 5.5; Octet response [4]: 5.9; Octet response [6]: 7.2; Octet response [8]: 2.9; Octet response [9]: 4.4
11 | PS1107 (designed binder, Variant of PS621) MHSKFSHAGRICGAKFKVGEPIYRCKECSFDDTCVLCVNCFNPKDHTGHHVYTTICREFNNGICDCGDKEAWNHTLFCKAEEG | 298 | 3830 | 7.8 | 8.1 | 3.9 | 0.6 | –
12 | PS1118 (designed binder, Variant of PS621) MHSKFSHAGRICGAKFKVGEPIYRCKECSFDDTCVLCVNCFNPKDHTGHHVYTTICTKFNNGICDCGDKEAWNHTLFCKAEEG | 271 | 6180 | 9.8 | 10.6 | 5 | 1.8 | –
13 | PS1119 (designed binder, Variant of PS621) MHSKFSHAGRICGAKFKVGEPIYRCKECSFDDTCVLCVNCFNPKDHTGHHVYTTICKEFNNGICDCGDKEAWNHTLFCKAEEG | 289 | 11400 | 8.6 | 9.6 | 3.3 | 0.7 | –
14 | PS1120 (designed binder, Variant of PS621) MHSKFSHAGRICGAKFKVGEPIYRCKECSFDDTCVLCVNCFNPKDHTGHHVYTKICTEFNNGICDCGDKEAWNHTLFCKAEEG | – | – | 9.9 | 11.7 | 5.5 | 1.7 | Octet response [3]: 8.3; Octet response [4]: 9.5; Octet response [6]: 10.2; Octet response [8]: 8.8; Octet response [9]: 5.9
15 | PS769 (designed binder, Variant of PS557; also called N41D) MPTAASATESAIEDTPAPARPEVDGRTKPKRQPRYHVVLWDDDDHTYQYVVVMLQSLFGHPPERGYRLAKEVDTQGRVIVLTTTREHAELKRDQIHAFGYDRLLARSKGSMKASIEAEE | – | – | – | – | – | – | Kd [12]: 8700 nM; Kd [13]: 276 nM
16 | PS934 (designed binder, Variant of PS557; also called N41D, V72M, L68M, P62R) MPTAASATESAIEDTPAPARPEVDGRTKPKRQPRYHVVLWDDDDHTYQYVVVMLQSLFGHPRERGYRMAKEMDTQGRVIVLTTTREHAELKRDQIHAFGYDRLLARSKGSMKASIEAEE | – | – | – | – | – | – | Kd [14]: 325 nM; Kd [12]: 5330 nM
17 | PS968 (designed binder, Variant of PS557; also called V72M, Q55R, Y100R) MPTAASATESAIEDTPAPARPEVDGRTKPKRQPRYHVVLWNDDDHTYQYVVVMLRSLFGHPPERGYRLAKEMDTQGRVIVLTTTREHAELKRDQIHAFGRDRLLARSKGSMKASIEAEE | – | – | – | – | – | – | Kd [14]: 395 nM; Kd [12]: 5440 nM
18 | PS816 (designed binder, Variant of PS557; also called N41D, V72M) MPTAASATESAIEDTPAPARPEVDGRTKPKRQPRYHVVLWDDDDHTYQYVVVMLQSLFGHPPERGYRLAKEMDTQGRVIVLTTTREHAELKRDQIHAFGYDRLLARSKGSMKASIEAEE | – | – | – | – | – | – | Kd [14]: 805 nM; Kd [12]: 7590 nM; Kd [13]: 266 nM
19 | PS960 (designed binder, Variant of PS557) MPTAASATESAIEDTPAPARPEVDGRTKPKRQPRYHVVLWDDDDHTYQYVVVMLRSLFGIPPERGYRLAKEMDTQGRVIVLTTTREHAELKRDQIHAFGYDRLLARSKGSMKASIEAEE | – | – | – | – | – | – | Octet response [15]: 0.0851 nm; Octet response [16]: 10.5 nm; Octet response [17]: 1.68 nm; Octet response [18]: 9.98 nm; Octet response [19]: 9.29 nm; Octet response [20]: 6.86 nm
20 | PS962 (designed binder, Variant of PS557) MPTAASATESAIEDTPAPARPEVDGRTKPKRQPRYHVVLWDDDDHTYQYVVVMLRSLFGHPYARGYRLAKEMDTQGRVIVLTTTREHAELKRDQIHAFGRDRLLARSKGSMKASIEAEE | – | – | – | – | – | – | Octet response [15]: 2.57 nm; Octet response [16]: 10.5 nm; Octet response [17]: 3.76 nm; Octet response [18]: 10.7 nm; Octet response [19]: 10.7 nm; Octet response [20]: 8.37 nm
